According to article PMC2120187:

Biological target: murine IgG heavy chain (murine)
Test: immunoprecipitation with anti-mouse IgG and non-reducing SDS-PAGE

Q: For murine IgG heavy chain, which stoichiometry N is on record?
A: The stoichiometry N was 2.
